The Human Domainome abundance scans (Beltran et al. 2025)
± gives the uncertainty stated by the source.

B1: Chromodomain-helicase-DNA-binding protein 4, residues 365 to 417; numbered along this chain, Q14839 (parent)
chain: YETDHQDYCEVCQQGGEIILCDTCPRAYHMVCLDPDMEKAPEGKWSCPHCEKE

Variants of: B1
Assay: abundance fitness (aPCA) (normalised: wild type 0, dead -1); higher = more abundant; growth selection in yeast, the domain comes from the species named
Details: Homo sapiens

Variant | abundance fitness
W45D | -0.313 ± 0.2
W45I | 0.057 ± 0.19
W45L | -0.218 ± 0.097
W45S | 0.098 ± 0.1
W45N | -0.051 ± 0.18
W45C | -0.101 ± 0.13
W45Q | 0.109 ± 0.14
W45E | 0.083 ± 0.16
W45A | 0.005 ± 0.13
W45G | 0.025 ± 0.085
W45F | -0.159 ± 0.15
C32Q | -1.08 ± 0.23
C32P | -0.794 ± 0.19
C32S | -0.952 ± 0.14
C32N | -1.04 ± 0.39
C32W | -0.936 ± 0.13
C32L | -0.776 ± 0.12
C32G | -0.967 ± 0.13
C32K | -0.817 ± 0.22
C32M | -0.687 ± 0.15
C32D | -0.486 ± 0.21
C32I | -0.916 ± 0.24
C32H | -0.072 ± 0.21
C32T | -0.94 ± 0.17

Variant | abundance fitness
C32Y | -1 ± 0.21
C32V | -0.63 ± 0.12
C32E | -0.504 ± 0.17
C32F | -1.02 ± 0.25
C32A | -0.737 ± 0.14
L33N | -0.547 ± 0.27
L33K | -0.103 ± 0.14
L33T | 0.162 ± 0.12
L33Q | -0.114 ± 0.19
L33A | 0.123 ± 0.12
L33D | -1.04 ± 0.24
L33Y | -0.025 ± 0.16
L33M | -0.084 ± 0.16
L33P | -0.404 ± 0.17
L33C | 0.026 ± 0.14
L33F | 0.022 ± 0.18
L33E | -0.496 ± 0.12
L33S | 0.141 ± 0.1
L33W | 0.024 ± 0.11
L33G | -0.195 ± 0.095
H29C | 0.028 ± 0.16
H29S | -0.477 ± 0.11
H29E | -0.951 ± 0.15
H29F | -1.05 ± 0.29

Variant | abundance fitness
H29D | -0.306 ± 0.19
H29W | -0.999 ± 0.12
H29Q | -0.746 ± 0.14
H29T | -0.79 ± 0.15
H29Y | -0.841 ± 0.16
H29N | -0.491 ± 0.26
H29I | -1.17 ± 0.24
H29L | -1.04 ± 0.14
H29K | -0.943 ± 0.19
H29G | -0.698 ± 0.093
H29V | -1.15 ± 0.11
H29P | -1.1 ± 0.21
H29A | -0.967 ± 0.13
H29M | -0.686 ± 0.16
S46P | -0.258 ± 0.14
S46K | -0.65 ± 0.18
S46L | -0.168 ± 0.1
S46W | 0.014 ± 0.12
S46T | -0.07 ± 0.15
S46M | -0.197 ± 0.15
S46F | 0.125 ± 0.15
S46G | -0.23 ± 0.086
S46H | 0.068 ± 0.3
S46C | 0.031 ± 0.16

Variant | abundance fitness
S46N | 0.039 ± 0.17
S46I | -0.489 ± 0.23
S46R | -0.137 ± 0.092
S46E | -0.039 ± 0.13
S46Q | 0.054 ± 0.14
S46Y | -0.003 ± 0.16
S46D | -0.168 ± 0.14
S46A | -0.18 ± 0.11
V31C | 0.138 ± 0.18
V31P | 0 ± 0.14
V31A | 0.121 ± 0.11
V31W | -0.236 ± 0.14
V31G | -0.017 ± 0.091
V31Q | -0.1 ± 0.14
V31M | -0.417 ± 0.16
V31Y | 0.112 ± 0.16
V31T | -0.431 ± 0.17
V31L | 0.258 ± 0.098
V31F | -0.031 ± 0.16
V31H | 0.104 ± 0.18
V31N | 0.113 ± 0.21
V31S | 0.044 ± 0.11
V31D | -0.005 ± 0.14
V31I | -0.234 ± 0.15

Variant | abundance fitness
V31K | 0.027 ± 0.17
V31E | -0.089 ± 0.13
V31R | -0.032 ± 0.1
M37S | 0.079 ± 0.12
M37G | -0.199 ± 0.1
M37K | -0.242 ± 0.24
M37H | -0.217 ± 0.22
M37Q | -0.103 ± 0.15
M37W | 0.079 ± 0.12
M37N | 0.141 ± 0.23
M37A | -0.067 ± 0.11
M37C | 0.34 ± 0.18
M37F | 0.24 ± 0.15
M37D | -0.451 ± 0.23
M37R | 0.054 ± 0.095
M37E | -0.392 ± 0.14
M37P | 0.026 ± 0.11
M37I | -0.023 ± 0.19
M37T | -0.329 ± 0.12
M37L | -0.059 ± 0.11
M37V | 0.076 ± 0.094
D34N | -0.091 ± 0.17
D34P | -0.149 ± 0.18
D34L | -0.025 ± 0.097

Variant | abundance fitness
D34V | -0.094 ± 0.099
D34Q | -0.257 ± 0.2
D34T | -0.047 ± 0.14
D34W | 0.009 ± 0.14
D34F | -0.282 ± 0.14
D34A | -0.07 ± 0.12
D34S | -0.146 ± 0.11
D34G | 0.037 ± 0.094
D34R | -0.145 ± 0.092
D34Y | -0.118 ± 0.15
D34H | -0.069 ± 0.18
D34C | 0.018 ± 0.16
D34I | -0.463 ± 0.2
D34K | -0.314 ± 0.12
K39L | -0.132 ± 0.1
K39E | -0.077 ± 0.13
K39N | -0.264 ± 0.23
K39S | -0.203 ± 0.1
K39Q | -0.323 ± 0.18
K39F | -0.472 ± 0.15
K39H | -0.237 ± 0.28
K39W | -0.172 ± 0.11
K39A | -0.06 ± 0.14
K39T | -0.217 ± 0.15

Variant | abundance fitness
K39Y | -0.077 ± 0.17
K39G | 0.008 ± 0.096
K39P | -0.094 ± 0.15
K39R | -0.082 ± 0.093
K39M | 0.115 ± 0.16
K39C | -0.347 ± 0.12
K39V | 0.1 ± 0.11
K39I | -0.125 ± 0.18
M30W | -0.119 ± 0.12
M30Q | -0.287 ± 0.17
M30T | 0.077 ± 0.16
M30S | -0.228 ± 0.1
M30K | 0.115 ± 0.18
M30R | -0.266 ± 0.099
M30H | -0.433 ± 0.2
M30E | 0.075 ± 0.12
M30V | -0.137 ± 0.099
M30A | -0.064 ± 0.1
M30I | -0.02 ± 0.19
M30F | -0.19 ± 0.14
M30L | -0.149 ± 0.075
M30D | -0.272 ± 0.12
M30G | -0.126 ± 0.086
